Assay results published in publication PMC6609460 (Nature structural & molecular biology, 2019).

T1: FBXL2 in the crystallised GGTase3-FBXL2-SKP1 complex (human, UniProt Q9UKC9 1-423)
T1 sequence: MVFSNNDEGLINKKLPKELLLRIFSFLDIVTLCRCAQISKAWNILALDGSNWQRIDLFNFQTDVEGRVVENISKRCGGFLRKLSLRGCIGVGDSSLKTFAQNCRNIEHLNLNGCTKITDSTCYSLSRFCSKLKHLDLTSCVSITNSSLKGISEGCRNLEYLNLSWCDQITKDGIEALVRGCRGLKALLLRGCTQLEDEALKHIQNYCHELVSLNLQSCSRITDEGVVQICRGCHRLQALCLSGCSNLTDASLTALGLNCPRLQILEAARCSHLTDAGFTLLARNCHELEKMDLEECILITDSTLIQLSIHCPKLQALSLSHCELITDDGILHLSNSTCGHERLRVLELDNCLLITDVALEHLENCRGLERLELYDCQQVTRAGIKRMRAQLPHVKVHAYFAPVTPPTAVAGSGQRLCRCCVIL

B1: PTAR1 in the crystallised GGTase3-FBXL2-SKP1 complex (natural protein)
chain: MAETSEEVAVLVQRVVKDITNAFRRNPHIDEIGLIPCPEARYNRSPIVLVENKLGVESWCVKFLLPYVHNKLLLYRTRKQWLNRDELIDVTCTLLLLNPDFTTAWNVRKELILSGTLNPIKDLHLGKLALTKFPKSPETWIHRRWVLQQLIQETSLPSFVTKGNLGTIPTERAQRLIQEEMEVCGEAAGRYPSNYNAWSHRIWVLQHLAKLDVKILLDELSSTKHWASMHVSDHSGFHYRQFLLKSLISQTVIDSSVMEQNPLRSEPALVPPKDEEAAVSTEEPRINLPHLLEEEVEFSTDLIDSYPGHETLWCHRRHIFYLQHHLNAGSQLSQAMEVDGLNDSSKQGYSQETKRLKRTPVPDSLGLEMEHRFIDQVLSTCRNVEQARFASAYRKWLVTLSQ
B2: RabGGTB in the crystallised GGTase3-FBXL2-SKP1 complex (natural protein)
chain: MGTPQKDVIIKSDAPDTLLLEKHADYIASYGSKKDDYEYCMSEYLRMSGIYWGLTVMDLMGQLHRMNREEILAFIKSCQHECGGISASIGHDPHLLYTLSAVQILTLYDSINVIDVNKVVEYVKGLQKEDGSFAGDIWGEIDTRFSFCAVATLALLGKLDAINVEKAIEFVLSCMNFDGGFGCRPGSESHAGQIYCCTGFLAITSQLHQVNSDLLGWWLCERQLPSGGLNGRPEKLPDVCYSWWVLASLKIIGRLHWIDREKLRNFILACQDEETGGFADRPGDMVDPFHTLFGIAGLSLLGEEQIKPVNPVFCMPEEVLQRVNVQPELVS

How the values were obtained:
[1] = target: T1, FBXL2 in the crystallised …; test: crystal structure
[2] = target: B1; test: crystal structure

binding result [1]	binding result [2]	Binder
binds		B1
	binds	B2
